Blank lines part the entries; values can stand above or below the molecule they belong to.
Columns and labels:
[1] = target: extracellular fragment of FcγRIIIa (158V); assay: BLI; biotinylated FcγR immobilized on Streptavidin (SA) biosensors (Octet Red384); antibodies in solution as serial dilutions; PBS pH 7.4 0.1% BSA 0.1% Tween-20; at least triplicate
[2] = target: extracellular fragment of FcγRIIa (131R); assay: as above
[3] = target: extracellular fragment of FcγRIIa (131H) (UniProt P12318); assay: as above
Sequence of extracellular fragment of FcγRIIa (131H) (P12318 34-217): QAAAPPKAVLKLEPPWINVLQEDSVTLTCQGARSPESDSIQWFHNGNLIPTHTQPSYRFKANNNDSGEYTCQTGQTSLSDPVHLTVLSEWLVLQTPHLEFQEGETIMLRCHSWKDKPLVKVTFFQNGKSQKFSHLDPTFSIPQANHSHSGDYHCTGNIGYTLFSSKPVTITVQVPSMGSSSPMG

[4] = target: extracellular fragment of FcγRIIb (UniProt P31994); assay: as above
Sequence of extracellular fragment of FcγRIIb (P31994 43-217): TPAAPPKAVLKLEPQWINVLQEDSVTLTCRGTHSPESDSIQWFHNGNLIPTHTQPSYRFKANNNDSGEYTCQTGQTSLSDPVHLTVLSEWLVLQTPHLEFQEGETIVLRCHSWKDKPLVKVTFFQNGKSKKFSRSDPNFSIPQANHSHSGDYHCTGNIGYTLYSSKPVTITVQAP

[5] = target: extracellular fragment of FcγRIa (UniProt P12314); assay: as above
Sequence of extracellular fragment of FcγRIa (P12314 16-292): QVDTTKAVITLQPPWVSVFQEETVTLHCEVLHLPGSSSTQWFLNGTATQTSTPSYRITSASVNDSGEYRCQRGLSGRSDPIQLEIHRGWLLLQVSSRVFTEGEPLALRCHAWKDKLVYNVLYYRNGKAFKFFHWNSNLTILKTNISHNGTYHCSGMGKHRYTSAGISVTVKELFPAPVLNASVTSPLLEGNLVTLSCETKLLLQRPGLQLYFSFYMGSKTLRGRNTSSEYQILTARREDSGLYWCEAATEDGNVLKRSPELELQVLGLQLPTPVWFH

[6] = target: extracellular fragment of FcγRIIIa (158F) (UniProt P08637); assay: as above
Sequence of extracellular fragment of FcγRIIIa (158F) (P08637 17-208): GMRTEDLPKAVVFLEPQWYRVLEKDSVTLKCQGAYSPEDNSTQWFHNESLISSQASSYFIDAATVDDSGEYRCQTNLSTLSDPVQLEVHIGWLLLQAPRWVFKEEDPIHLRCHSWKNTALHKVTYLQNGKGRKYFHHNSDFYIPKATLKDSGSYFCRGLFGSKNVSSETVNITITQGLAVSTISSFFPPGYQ

[7] = target: extracellular fragment of FcRn (UniProt P55899); assay: BLI; biotinylated FcRn immobilized on Streptavidin (SA) biosensors (Octet Red384); antibodies in solution, 345 to 5.39 nM; PBS-HCl pH 6.0 0.1% Tween-20; at least triplicate
Sequence of extracellular fragment of FcRn (P55899 24-297): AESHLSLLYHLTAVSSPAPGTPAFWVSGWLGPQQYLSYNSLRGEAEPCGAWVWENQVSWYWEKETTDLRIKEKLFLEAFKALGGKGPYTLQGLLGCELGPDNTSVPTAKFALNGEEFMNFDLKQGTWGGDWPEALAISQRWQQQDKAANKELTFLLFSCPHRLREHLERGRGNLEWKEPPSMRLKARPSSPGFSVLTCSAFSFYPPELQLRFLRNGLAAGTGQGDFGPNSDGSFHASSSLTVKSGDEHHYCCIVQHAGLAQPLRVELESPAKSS

[8] = target: T1, extracellular domain of PD-1 receptor (R&D Systems) (Homo sapiens, UniProt Q15116); assay: SPR; PD-1 extracellular domain immobilized on a Planar Polyethylene Glycol/Carboxyl Sensor Chip (Reichert4SPR); antibodies in solution, 10; 3.33; 1.11; 0.37; 0.12 nM in PBS 0.02% Tween-20 pH 7.4; multi-step kinetics; triplicate; details: both partners purified
T1 construct: Programmed cell death protein 1 (PD-1), extracellular domain; also called Programmed cell death protein 1; source: bought: R&D Systems
T1 sequence (Q15116 25-170): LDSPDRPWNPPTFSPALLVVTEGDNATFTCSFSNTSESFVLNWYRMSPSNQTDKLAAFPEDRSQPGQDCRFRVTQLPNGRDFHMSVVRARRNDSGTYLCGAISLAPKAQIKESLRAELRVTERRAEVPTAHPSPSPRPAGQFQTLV

Kd [1]: 5.24 µM
Kd [2]: 5.17 µM
Molecule: Pembrolizumab (antibody)

Kd [1]: 8.97 µM
Kd [3]: 13.1 µM
Kd [4]: 0.93 µM
Kd [2]: 2 µM
Kd [5]: 0.074 µM
Kd [6]: 16.6 µM
Kd [7]: 0.0248 µM
Molecule: Nivolumab (antibody)

Kd [3]: 11.1 µM
Kd [4]: 8.64 µM
Kd [5]: 0.085 µM
Kd [6]: 19.9 µM
Kd [7]: 0.025 µM
Kd [8]: 4.7 pM
B1: Pembrolizumab (antibody, V domains shown)
VH: QVQLVQSGVEVKKPGASVKVSCKASGYTFTNYYMYWVRQAPGQGLEWMGGINPSNGGTNFNEKFKNRVTLTTDSSTTTAYMELKSLQFDDTAVYYCARRDYRFDMGFDYWGQGTTVTVSS
VL: EIVLTQSPATLSLSPGERATLSCRASKGVSTSGYSYLHWYQQKPGQAPRLLIYLASYLESGVPARFSGSGSGTDFTLTISSLEPEDFAVYYCQHSRDLPLTFGGGTKVEIK
notes: variable domain of the pembrolizumab heavy chain; constant region of the IgG4 heavy chain; light chain of pembrolizumab; IgG4; Whole therapeutic antibody in all assays; also called anti-PD-1 antibody; IgG4

Kd [1]: 1.33 µM
Kd [3]: 14.6 µM
Kd [4]: 21 µM
Kd [2]: 9.66 µM
Kd [5]: 0.9 µM
Kd [6]: 12.7 µM
Kd [7]: 0.0153 µM
B2: Prolgolimab (antibody, V domains shown)
VH: QVQLVQSGGGLVQPGGSLRLSCAASGFTFSSYWMYWVRQVPGKGLEWVSAIDTGGGRTYYADSVKGRFAISRVNAKNTMYLQMNSLRAEDTAVYYCARDEGGGTGWGVLKDWPYGLDAWGQGTLVTVSS
VL: QPVLTQPLSVSVALGQTARITCGGNNIGSKNVHWYQQKPGQAPVLVIYRDSNRPSGIPERFSGSNSGNTATLTISRAQAGDEADYYCQVWDSSTAVFGTGTKLTVL

From paper PMC11452378 (Scientific Reports, 2024)
